Test results taken from patent US20170145113A1 (Genentech, published 2017).
One block for each binder: values may come before it.

Assays:
[1] = molecular target: T1, His-tagged human HtrA1 protease domain (human, UniProt Q92743 161-367); assay: SPR (BIACORE T100), single-cycle kinetics; biotinylated HtrA1-PD-His on streptavidin, Fab injected
T1 construct: His-tagged protease domain; also called huHtrA1-PD-His; huHtrA1-PD
Source text: (§1) To determine the binding affinity of anti-HtrA1 Fabs by single-cycle kinetics, (SPR) measurement with a BIACORE™ T100 instrument was used. Briefly, a series S sensor chip CM5 was activated with 1-ethyl-3-(3-dimethylamino-propyl)carbodiimide hydrochloride (EDC) and N-hydroxysuccinimide (NHS) reagents according to the supplier's instructions, and streptavidin (Pierce) was coupled to achieve approximately 2500 response units (RU), followed by blocking un-reacted groups with 1 M ethanolamine.
(§2) For kinetics measurements, biotinylated human or murine HtrA1-PD-His was first injected at 10 μl/min flow rate to capture approximately 150 RU at 3 different flow cells (FC), except for FC1 (which served as a reference), and then 5-fold serial dilutions of anti-HtrA1 Fab in HBS-P buffer (0.01M HEPES pH 7.4, 0.15 M NaCl, 0.005% surfactant P20) from low (0.48 nM) to high (300 nM) were injected (flow rate: 30 μl/min) one after the other in the same cycle with no regeneration between injections. The sensorgram was recorded and subject to reference and buffer subtraction before evaluating by BIACORE™ T100 Evaluation Software (version 2.0). Association rates (kₒₙ) and dissociation rates (koff) were calculated using a simple one-to-one Langmuir binding model. The equilibrium dissociation constant (KD) was calculated as the ratio koff/kₒₙ.

[2] = molecular target: T2, His-tagged recombinant murine HtrA1 protease domain (murine, UniProt Q9R118 156-367); assay: as above
T2 construct: His-tagged protease domain; also called muHtrA1-PD-His; muHtrA1-PD
Source text: as §1, §2

[3] = molecular target: T1, His-tagged human HtrA1 protease domain; assay: BIACORE SPR, Fab analyte, Human HtrA1-PD (N=2)
[4] = molecular target: T1, His-tagged human HtrA1 protease domain; assay: SPR (BIACORE), Fab
Source text: (§3) To address W91 oxidation in HVR-L3, 2 variants (LC-W91Y and LC-W91L) were generated and produced as Fabs for BIACORE™ SPR binding analysis.
as §1, §2

[5] = molecular target: T2, His-tagged recombinant murine HtrA1 …; assay: SPR (BIACORE), Fab
Source text: as §3, §1, §2

[6] = molecular target: T1, His-tagged human HtrA1 protease domain; assay: phage competition ELISA (Fab on phage, HtrA1 in solution)
Method: MAXISORP™ microliter plates were coated with human HtrA1-PD-His at 2 μg/ml in PBS for 2 h and then blocked with PBST buffer (0.5% BSA and 0.05% TWEEN®20 in PBS) for 1 h at room temperature. Phage purified from culture supernatants were incubated with serially-diluted human or murine HtrA1 in PBST buffer in a tissue-culture microtiter plate for 1 h, after which 80 μl of the mixture was transferred to human HtrA1-coated wells for 15 min to capture unbound phage. The plate was washed with PBT buffer (0.05% TWEEN®20 in PBS), and HRP-conjugated anti-M13 antibody (Amersham Pharmacia Biotech) was added (1:5000 in PBST buffer) for 40 min. The plate was washed with PBT buffer and developed by adding tetramethylbenzidine substrate (Kirkegaard and Perry Laboratories, Gaithersburg, Md.). The absorbance at 450 nm was plotted as a function of target concentration in solution to determine phage IC50.

[7] = molecular target: T1, His-tagged human HtrA1 protease domain; assay: cell-based or functional assay
[8] = molecular target: T1, His-tagged human HtrA1 protease domain; assay: BIACORE T200 SPR; Fab analyte over huHtrA1-PD-His captured by anti-His antibody
Method: (§4) To determine the binding affinity of selected Fab variants for HtrA1, SPR measurement with a BIACORE™ T200 instrument was performed. Briefly, a series S sensor chip CM5 was activated with 1-EDC and NHS reagents according to the supplier's instructions, and anti-His antibody was coupled to achieve 200-300 response units (RU), then following by blocking un-reacted groups with 1 M ethanolamine. For kinetics measurements, approximately 5 nM of huHtrA1-PD-His was first injected at 10 μl/min flow rate to capture approximately 100 RU at 2 different flow cells (FC), except for FC1 (which served as a reference). Next, 5-fold serial dilutions of Fab in HBS-P buffer (0.01M HEPES pH 7.4, 0.15M NaCl, 0.005% surfactant P20) from low (0.8 nM) to high (50 nM) were injected (flow rate: 30 μl/min). The binding responses on HtrA1 were corrected by subtracting of RU from a blank flow cell. The sensorgram was recorded and subject to reference and buffer subtraction before evaluating by BIACORE® T200 Evaluation Software (version 2.0). Association rates (kₒₙ) and dissociation rates (koff) were calculated using a simple one-to-one Langmuir binding model. The equilibrium dissociation constant (KD) was calculated as the ratio of koff/kₒₙ.

[9] = molecular target: T1, His-tagged human HtrA1 protease domain; assay: BIACORE SPR analysis, Fab format
Method: as §4

[10] = molecular target: T1, His-tagged human HtrA1 protease domain; assay: BIACORE SPR, single-cycle kinetics; Fab analyte over captured human HtrA1
[11] = molecular target: T1, His-tagged human HtrA1 protease domain; assay: SPR (BIACORE), Fab; remark: listed apart in the source

T1 sequence (Q92743 other isoform, or with tags, fused parts or gaps limits assumed): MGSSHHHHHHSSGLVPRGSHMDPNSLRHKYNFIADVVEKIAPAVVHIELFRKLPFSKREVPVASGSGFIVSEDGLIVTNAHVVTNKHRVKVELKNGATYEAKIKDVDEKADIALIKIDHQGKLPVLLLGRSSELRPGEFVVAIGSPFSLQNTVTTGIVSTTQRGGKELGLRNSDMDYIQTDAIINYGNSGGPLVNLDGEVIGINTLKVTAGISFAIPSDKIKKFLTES

B3: EP_EG (Fab, V domains shown)
VH: EVQLVQSGAEVKKPGASVKVSCKASGYTFTDSEMHWVRQAPGQGLEWIGGVDPETEGAAYNQKFKGRATITRDTSTSTAYLELSSLRSEDTAVYYCTRGYDYDYALDYWGQGTLVTVSS
VL: DIQMTQSPSSLSASVGDRVTITCRASSSVNFIHWYQQKPGKAPKPLISATSNLASGVPSRFSGSGSGTDFTLTISSLQPEDFATYYCQQWSSEPWTFGQGTKVEIK
notes: also called h15H6.v2 LC-N94E LC-P95 HC-D55E HC-G56 Fab; copies: 1 + 1
- Kd [3]: 0.4 nM
- koff [3]: 0.00018 s⁻¹
- kon [3]: 450000 M⁻¹ s⁻¹

B5: h15H6.v1 HC-A67V variant (Fab, V domains shown)
VH: EVQLVQSGAEVKKPGASVKVSCKASGYTFTDSEMHWVRQAPGQGLEWIGGVDPETDGAAYNQKFKGRVTLTADTSTSTAYLELSSLRSEDTAVYYCTRGYDYDYALDYWGQGTLVTVSS
VL: DIQMTQSPSSLSASVGDRVTITCRASSSVNFIHWYQQKPGKAPKPWISATSNLASGVPSRFSGSGSGTDFTLTISSLQPEDFATYYCQQWSSNPWTFGQGTKVEIK
notes: built as h15H6.v1
- binding result [6]: binds

B6: QP_EG (Fab, V domains shown)
VH: EVQLVQSGAEVKKPGASVKVSCKASGYTFTDSEMHWVRQAPGQGLEWIGGVDPETEGAAYNQKFKGRATITRDTSTSTAYLELSSLRSEDTAVYYCTRGYDYDYALDYWGQGTLVTVSS
VL: DIQMTQSPSSLSASVGDRVTITCRASSSVNFIHWYQQKPGKAPKPLISATSNLASGVPSRFSGSGSGTDFTLTISSLQPEDFATYYCQQWSSQPWTFGQGTKVEIK
notes: also called h15H6.v2 LC-N94Q LC-P95 HC-D55E HC-G56 Fab; copies: 1 + 1
- Kd [3]: 0.8 nM
- koff [3]: 0.00029 s⁻¹
- kon [3]: 380000 M⁻¹ s⁻¹

B9: h15H6.v1 HC-T93A variant (Fab, V domains shown)
VH: EVQLVQSGAEVKKPGASVKVSCKASGYTFTDSEMHWVRQAPGQGLEWIGGVDPETDGAAYNQKFKGRATLTADTSTSTAYLELSSLRSEDTAVYYCARGYDYDYALDYWGQGTLVTVSS
VL: DIQMTQSPSSLSASVGDRVTITCRASSSVNFIHWYQQKPGKAPKPWISATSNLASGVPSRFSGSGSGTDFTLTISSLQPEDFATYYCQQWSSNPWTFGQGTKVEIK
notes: built as h15H6.v1
- binding result [6]: binds

B10: SP_EG (Fab, V domains shown)
VH: EVQLVQSGAEVKKPGASVKVSCKASGYTFTDSEMHWVRQAPGQGLEWIGGVDPETEGAAYNQKFKGRATITRDTSTSTAYLELSSLRSEDTAVYYCTRGYDYDYALDYWGQGTLVTVSS
VL: DIQMTQSPSSLSASVGDRVTITCRASSSVNFIHWYQQKPGKAPKPLISATSNLASGVPSRFSGSGSGTDFTLTISSLQPEDFATYYCQQWSSSPWTFGQGTKVEIK
notes: also called h15H6.v2 LC-N94S LC-P95 HC-D55E HC-G56 Fab; copies: 1 + 1
- Kd [3]: 0.8 nM
- koff [3]: 0.00029 s⁻¹
- kon [3]: 350000 M⁻¹ s⁻¹

More lines, now with the values ahead:

- Kd [1]: 0.31 nM
- koff [1]: 0.000155 s⁻¹
- kon [1]: 506000 M⁻¹ s⁻¹
- Kd [2]: 0.3 nM
- koff [2]: 0.000163 s⁻¹
- kon [2]: 539000 M⁻¹ s⁻¹
B1: m15H6 Fab (Fab, V domains shown)
VH: QVQLQQSGAELVRPGASVTLSCKASGYTFTDSEMHWVKQTPVHGLEWIGGVDPETDGAAYNQKFKGKATLTADKSSSTAYMELRSLTSEDSAVYYCTRGYDYDYALDYWGQGTSVTVSS
VL: QIVLSQSPAILSASPGEKVTMTCRASSSVNFIHWYQQKPGSSPKPWISATSNLASGVPPRFSGSGSGTSYSLTISRVEAEDAATYYCQQWSSNPWTFGGGTKLEIK
notes: Tested as Fab; also called ml5H6 Fab; m15H6 in Fab format

- Kd [1]: 23.8 nM
- koff [1]: 0.00228 s⁻¹
- kon [1]: 96000 M⁻¹ s⁻¹
- Kd [2]: 6.43 nM
- koff [2]: 0.00117 s⁻¹
- kon [2]: 182000 M⁻¹ s⁻¹
B2: m19B12 Fab (Fab, V domains shown)
VH: EVKLVESGGGLVEPGGSLKLACVASGFTFSSYIMSWVRQTPEKRLEWVAYISNGGGTTYYSDTIKGRFTISRDNAKNTLYLQMSTLKSEDTAIYFCARQNFRSDGSSMDYWGQGTAVTVSS
VL: NIVVTQSPASLAVSLGQRATISCRASESVDSYGKSFMHWYQQKPGQPPKLLIYLASKLESGVPARFSGSGSRTDFTLTIDPVEADDAATYYCQQNNEDPYTFGGGTKLEIK
notes: Tested in Fab format

- Kd [4]: 11.2 nM
- koff [4]: 0.0037 s⁻¹
- kon [4]: 330000 M⁻¹ s⁻¹
- Kd [5]: 7.1 nM
- koff [5]: 0.0017 s⁻¹
- kon [5]: 240000 M⁻¹ s⁻¹
B4: h15H6.v2 LC-W91Y Fab (Fab, V domains shown)
VH: EVQLVQSGAEVKKPGASVKVSCKASGYTFTDSEMHWVRQAPGQGLEWIGGVDPETDGAAYNQKFKGRATITRDTSTSTAYLELSSLRSEDTAVYYCTRGYDYDYALDYWGQGTLVTVSS
VL: DIQMTQSPSSLSASVGDRVTITCRASSSVNFIHWYQQKPGKAPKPLISATSNLASGVPSRFSGSGSGTDFTLTISSLQPEDFATYYCQQYSSNPWTFGQGTKVEIK
notes: Produced as Fab

- Kd [4]: 10.7 nM
- koff [4]: 0.0016 s⁻¹
- kon [4]: 150000 M⁻¹ s⁻¹
- Kd [5]: 7.6 nM
- koff [5]: 0.00091 s⁻¹
- kon [5]: 120000 M⁻¹ s⁻¹
B7: h15H6.v2 LC-W91L Fab (Fab, V domains shown)
VH: EVQLVQSGAEVKKPGASVKVSCKASGYTFTDSEMHWVRQAPGQGLEWIGGVDPETDGAAYNQKFKGRATITRDTSTSTAYLELSSLRSEDTAVYYCTRGYDYDYALDYWGQGTLVTVSS
VL: DIQMTQSPSSLSASVGDRVTITCRASSSVNFIHWYQQKPGKAPKPLISATSNLASGVPSRFSGSGSGTDFTLTISSLQPEDFATYYCQQLSSNPWTFGQGTKVEIK
notes: Produced as Fab

- Kd [3]: 0.6 nM
- koff [3]: 0.00021 s⁻¹
- kon [3]: 350000 M⁻¹ s⁻¹
- IC50 FRET (H2-Opt substrate cleavage) [7]: 0.41 nM
- IC90 FRET (H2-Opt substrate cleavage) [7]: 2.77 nM
- Max inhibition (FRET H2-Opt assay) [7]: 77
- Kd [8]: 0.546 nM
- koff [8]: 0.000172 s⁻¹
- kon [8]: 315000 M⁻¹ s⁻¹
- Kd [9]: 0.546 nM
- koff [9]: 0.000172 s⁻¹
- kon [9]: 315000 M⁻¹ s⁻¹
B8: h15H6.v2.APEG Fab (Fab, name in Kabat numbering, V domains shown)
VH: EVQLVQSGAEVKKPGASVKVSCKASGYTFTDSEMHWVRQAPGQGLEWIGGVDPETEGAAYNQKFKGRATITRDTSTSTAYLELSSLRSEDTAVYYCTRGYDYDYALDYWGQGTLVTVSS
VL: DIQMTQSPSSLSASVGDRVTITCRASSSVNFIHWYQQKPGKAPKPLISATSNLASGVPSRFSGSGSGTDFTLTISSLQPEDFATYYCQQWSSAPWTFGQGTKVEIK
notes: also called h15H6.v3; LC-N94A LC-P95 HC-D55E HC-G56

- Kd [10]: 0.52 nM
- koff [10]: 0.00029 s⁻¹
- kon [10]: 560000 M⁻¹ s⁻¹
- fold reduction in binding affinity against h15H6.v2 [11]: ~2 fold
B11: h15H6.v2 LC-N94Q LC-P95 Fab (Fab, V domains shown)
VH: EVQLVQSGAEVKKPGASVKVSCKASGYTFTDSEMHWVRQAPGQGLEWIGGVDPETDGAAYNQKFKGRATITRDTSTSTAYLELSSLRSEDTAVYYCTRGYDYDYALDYWGQGTLVTVSS
VL: DIQMTQSPSSLSASVGDRVTITCRASSSVNFIHWYQQKPGKAPKPLISATSNLASGVPSRFSGSGSGTDFTLTISSLQPEDFATYYCQQWSSQPWTFGQGTKVEIK
notes: Produced as Fab; also called QP
